For test [1], the target named is human 4-1BB on CHO-K1 cells (human) (UniProt Q07011). As to the kind of experiment: FACS; FIG. 25D.
For test [2] the target is unchanged. Briefly: FACS; FIG. 25E.
For test [3] the target is unchanged. Briefly: FACS; FIG. 25A.
For test [4] the target is unchanged. Briefly: FACS; FIG. 25B.
Test [5] has the same target. Briefly: FACS; FIG. 25C.
The target is the same in test [6]. Briefly: FACS; FIG. 11H.
For test [7] the target is unchanged. As to the kind of experiment: FACS; FIG. 11I.
Test [8] shares this target. As to the kind of experiment: FACS; FIG. 11J.
Test [9] has the same target. Briefly: FACS blocking of 4-1BBL; FIG. 14F.
The target is the same in test [10]. As to the kind of experiment: FACS blocking of 4-1BBL; FIG. 14G.
Test [11] has the same target. As to the kind of experiment: FACS blocking of 4-1BBL; FIG. 14H.

Experimental findings from patent publication US20230242658A1 are described below.

human 4-1BB on CHO-K1 cells (human), sequence (Q07011 24-255): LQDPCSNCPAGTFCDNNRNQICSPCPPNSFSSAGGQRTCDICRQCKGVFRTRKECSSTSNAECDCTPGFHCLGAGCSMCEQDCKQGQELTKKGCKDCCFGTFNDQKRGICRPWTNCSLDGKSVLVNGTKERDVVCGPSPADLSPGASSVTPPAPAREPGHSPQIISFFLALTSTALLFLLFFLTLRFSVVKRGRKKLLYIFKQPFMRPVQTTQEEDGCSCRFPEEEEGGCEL

Consider Urelumab, for which the EC50 was determined as 0.653 nM in test [1]; 0.235 nM in [2]; 1.01 nM in test [3]; 0.347 nM in [4]; 0.519 nM in test [5]; 0.683 nM in test [6]. For the same substance, the EC50 in test [7] worked out at 0.712 nM; in [8] it was 0.486 nM. In addition, the IC50 in test [9] worked out at 1.27 nM; in test [10], 0.447 nM; in test [11] it was 0.232 nM.
